Key:
Assay in all cases: SPOT array
[1] = molecular target: T1, Yhr016c SH3 (YSC84_YEAST), P32793
T1 chain: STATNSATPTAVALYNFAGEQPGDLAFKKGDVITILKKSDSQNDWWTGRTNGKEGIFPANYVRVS

[2] = molecular target: T2, Boi1 SH3 (BOI1_YEAST), P38041
T2 chain: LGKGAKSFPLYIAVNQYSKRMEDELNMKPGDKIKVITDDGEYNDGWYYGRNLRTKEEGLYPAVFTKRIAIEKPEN

[3] = molecular target: T3, Boi2 SH3 (BOI2_YEAST), P39969
T3 chain: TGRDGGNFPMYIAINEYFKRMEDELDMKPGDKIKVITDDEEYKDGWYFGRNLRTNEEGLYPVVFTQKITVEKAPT

[4] = molecular target: T4, Rvs167 SH3 (RV167_YEAST), P39743
T4 chain: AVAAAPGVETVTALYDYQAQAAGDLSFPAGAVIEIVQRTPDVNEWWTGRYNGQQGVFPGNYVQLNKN

[5] = molecular target: Sho1 SH3 (SHO1_YEAST), P40073
[6] = molecular target: T5, Myo5 SH3 (MYO5_YEAST), Q04439
T5 chain: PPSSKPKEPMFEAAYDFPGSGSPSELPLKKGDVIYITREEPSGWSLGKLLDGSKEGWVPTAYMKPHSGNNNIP

[7] = molecular target: T6, Yfr024 SH3 (LSB3_YEAST), P43603
T6 chain: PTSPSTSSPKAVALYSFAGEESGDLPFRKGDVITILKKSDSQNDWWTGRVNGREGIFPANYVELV

Sho1 SH3 (SHO1_YEAST), P40073, sequence (P40073 295-366): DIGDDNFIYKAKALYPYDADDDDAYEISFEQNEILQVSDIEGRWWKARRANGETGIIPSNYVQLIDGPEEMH

Row | Binder | normalised SPOT signal, Boehringer light units (BLU); mean over the file's lines of this peptide [1] | normalised SPOT signal, Boehringer light units (BLU); mean over the file's lines of this peptide [2] | normalised SPOT signal, Boehringer light units (BLU); mean over the file's lines of this peptide [3] | normalised SPOT signal, Boehringer light units (BLU); mean over the file's lines of this peptide [4] | normalised SPOT signal, Boehringer light units (BLU); mean over the file's lines of this peptide [5] | normalised SPOT signal, Boehringer light units (BLU); mean over the file's lines of this peptide [6] | normalised SPOT signal, Boehringer light units (BLU); mean over the file's lines of this peptide [7]
1 | ELDIKQGPVRPFIV [YDL095W 18-31] | 17.8 | 86.2 | 33.2 | 24.5 | 27.9 | 161 | 41.1
2 | EYFPREYPKDPVSE [YDR124W 275-288] | 22.8 | 456 | 5.6 | 104 | 31.2 | 272 | 93.1
3 | ELQIRYKPTPPLKK [YPL074W 331-344] | 42.2 | 87.9 | 17.3 | 188 | 76.5 | 171 | 930
4 | ENENKKLPPAPTVF [YKR103W 236-249] | 24.6 | 50.9 | 12.9 | 22 | 3520 | 67.7 | 16.2
5 | ETTTRETPLPPIPA [YPL207W 797-810] | 71.1 | 85 | 43.2 | 167 | 1020 | 178 | 108
6 | FASEKGAPFFPNKT [YPR144C 134-147] | 40.9 | 60.7 | 269 | 585 | 12.3 | 359 | 264
7 | ELDTKTIPELPFSM [YJR092W 117-130] | 12.8 | -0 | 24.8 | 98.8 | 44.1 | 53.2 | 27.4
8 | EVLRKYIPGEPEFL [YDR023W 429-442] | 10.4 | 46.4 | 0 | 6.9 | 47.5 | 169 | 0
9 | ETGVRYGPEFPLST [YNL277W 122-135] | 40.6 | 93.9 | 23.4 | 11.9 | 23.1 | 96.2 | 7.2
10 | EWEEKLTPAGPLSP [YDR402C 463-476] | 32.1 | 65.4 | 13.1 | 46.8 | 38.2 | 297 | 80.9
11 | EVENKLRPDLPVKN [YFR030W 637-650] | 14.9 | 31.6 | 24.9 | 44.1 | 39.1 | 40.7 | 1360
12 | ERDGRGVPLGPRNH [YGL023C 22-35] | 50.2 | 370 | 25 | 35.7 | 38 | 121 | 643
13 | ETSLRVLPIAPKIF [YDL231C 393-406] | 55.1 | 426 | 47.6 | 766 | 2880 | 548 | 399
14 | FANIKREPVHPEIR [YPR101W 28-41] | 116 | 96 | 21.7 | 40 | 76 | 188 | 74.4
15 | ETKKKWQPLPPEPL [YOR042W 368-381] | 2.5 | 116 | 13.2 | 28.5 | 436 | 256 | 30.2
16 | EKYGKDQPESPVPE [YMR285C 368-381] | 1.6 | 62.1 | 12.1 | 41.8 | 66.3 | 143 | 0

— article PMC314469, “Protein Interaction Networks by Proteome Peptide Scanning” (PLoS Biology, 2004)
